Tests used:
[1] = target: BG505 SOSIP.664 trimer (HIV-1 strain BG505); test: negative-stain electron microscopy
[2] = target: single-chain BG505 SOSIP.664 trimer (HIV-1 strain BG505); test: SPR
[3] = target: BG505 SOSIP.664 N88Q (HIV-1 strain BG505); test: SPR
[4] = target: BG505 SOSIP.664 trimer (HIV-1 strain BG505); test: SPR

Fab VRC34.01 gave a stoichiometry N [1] of 3, a Kd [2] of 272 nM and a Kd [3] of 19.9 nM. It also gave a Kd [4] of 0.3 nM.

Reference: paper PMC4917739
